Measurements published in the supplement of paper PMC10724198.
± gives the standard deviation of the averaged measurements.

Tests used:
Saccharomyces cerevisiae [1] = experiment: protein stability index of tFT-peptide fusion (C-terminal peptide) (PSI (0-1 scale)); higher = more stable (slower turnover); details: genetic background: wild type; temperature: 30 C
Saccharomyces cerevisiae [2] = experiment: as above
Procedure: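 MPS profiling in S. cerevisiae of the tFT-X12 degron library: putative degron peptides plus stable controls, 12 aa, fused to the C-terminus of a sfGFP-mCherry timer. Cells are FACS-sorted into 8 mCherry/sfGFP bins and deep-sequenced. PSI runs from 0 (unstable) to 1 (stable). Backgrounds are wild type, das1Δ and doa10Δ at 30 °C, and wild type, das1Δ, cdc34-1 and cdc53-1 at 37 °C; 2-3 technical replicates each.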

[3] = genetic background: cdc34-1, temperature: 37 C
[4] = genetic background: cdc53-1, temperature: 37 C
[5] = genetic background: das1 deletion, temperature: 30 C
[6] = genetic background: das1 deletion, temperature: 37 C
[7] = genetic background: doa10 deletion, temperature: 30 C
[8] = genetic background: wild type, temperature: 30 C
[9] = genetic background: wild type, temperature: 37 C
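Note: PSI is a weighted mean of sequencing reads over stability bins, variants kept only with over 10 reads, mCherry proximal and sfGFP distal, peptide attached via GGGS linker.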

Sequence	protein stability index (Saccharomyces cerevisiae [1])	protein stability index (Saccharomyces cerevisiae [2]; [3])	protein stability index (Saccharomyces cerevisiae [2]; [4])	protein stability index (Saccharomyces cerevisiae [2]; [5])	protein stability index (Saccharomyces cerevisiae [2]; [6])	protein stability index (Saccharomyces cerevisiae [2]; [7])	protein stability index (Saccharomyces cerevisiae [2]; [8])	protein stability index (Saccharomyces cerevisiae [2]; [9])
VFLCVRLGFIFL	0.446 ± 0.026	0.419 ± 0.0062	0.486 ± 0.0065	0.359 ± 0.029	0.529 ± 0.012	0.404 ± 0.02	0.352 ± 0.023	0.471 ± 0.023
VFLLCLGFLVFS	0.336 ± 0.038	0.263 ± 0.011	0.341 ± 0.046	0.258 ± 0.025	0.4083 ± 0.0018	0.241 ± 0.024	0.275 ± 0.02	0.3886 ± 0.0038
VFLRRFGVPWVF	0.365 ± 0.017	0.594 ± 0.016	0.664 ± 0.019	0.493 ± 0.029	0.661 ± 0.016	0.198 ± 0.0071	0.227 ± 0.02	0.429 ± 0.0074
VFLSCFFVSWVV	0.3269 ± 0.0017	0.328 ± 0.019	0.403 ± 0.047	0.226 ± 0.027	0.40329 ± 5.2e-05	0.202 ± 0.011	0.204 ± 0.015	0.369 ± 0.03
VFLYVYAVWFLV	0.164 ± 0.025	0.156 ± 0.027	0.228 ± 0.0084	0.198 ± 0.042	0.321 ± 0.0075	0.1102 ± 0.00096	0.119 ± 0.053	0.118 ± 0.023
VFSFLYHVVPVL	0.441 ± 0.01	0.4374 ± 0.0012	0.49 ± 0.013	0.36 ± 0.028	0.505 ± 0.01	0.324 ± 0.018	0.348 ± 0.024	0.4554 ± 0.0018
VFVMRDGFLRKV	0.374 ± 0.044	0.63323 ± 0.00049	0.7055 ± 0.004	0.636 ± 0.022	0.748 ± 0.025	0.301 ± 0.013	0.341 ± 0.015	0.4507 ± 0.0016
VFWISRLYLASY	0.456 ± 0.02	0.474 ± 0.027	0.524 ± 0.023	0.442 ± 0.037	0.588 ± 0.012	0.42 ± 0.017	0.362 ± 0.023	0.52 ± 0.02
VGDFFVLVGFVA	0.492 ± 0.053	0.493 ± 0.0097	0.538 ± 0.011	0.386 ± 0.028	0.547 ± 0.0057	0.336 ± 0.0095	0.382 ± 0.022	0.5219 ± 0.0043
VGDIRSFALWYA	0.745 ± 0.041	0.699 ± 0.039	0.765 ± 0.014	0.661 ± 0.015	0.74 ± 0.0047	0.656 ± 0.038	0.646 ± 0.011	0.707 ± 0.011
VGGGGRFWVCVG	0.406 ± 0.04	0.657 ± 0.03	0.73937 ± 0.00061	0.629 ± 0.0064	0.737 ± 0.011	0.2122 ± 0.0019	0.237 ± 0.025	0.552 ± 0.031
VGVSCLVFFGVV	0.549 ± 0.11	0.644 ± 0.023	0.653 ± 0.0091	0.511 ± 0.017	0.6636 ± 0.0025	0.484 ± 0.026	0.509 ± 0.021	0.633 ± 0.0085
VIAYSLLSWGDF	0.371 ± 0.028	0.308 ± 0.0034	0.341 ± 0.019	0.378 ± 0.04	0.319 ± 0.023	0.403 ± 0.029	0.371 ± 0.021	0.305 ± 0.016
VLDFSVPRHVLH	0.707 ± 0.024	0.696 ± 0.014	0.7655 ± 0.0041	0.66 ± 0.0056	0.7364 ± 0.0016	0.661 ± 0.013	0.678 ± 0.035	0.7472 ± 0.0033
VLFFCLVIYVGV	0.217 ± 0.018	0.187 ± 0.0071	0.23702 ± 9.6e-05	0.183 ± 0.015	0.29 ± 0.035	0.141 ± 0.015	0.187 ± 0.027	0.26 ± 0.0013
VLILFFLVVFYV	0.262 ± 0.037	0.217 ± 0.015	0.294 ± 0.0088	0.267 ± 0.033	0.347 ± 0.018	0.2543 ± 0.0024	0.237 ± 0.021	0.3358 ± 0.0033
VLLCASPMLAVV	0.393 ± 0.03	0.343 ± 0.028	0.356 ± 0.022	0.289 ± 0.024	0.423 ± 0.0087	0.249 ± 0.0027	0.297 ± 0.011	0.39 ± 0.0039
VLLCGCVWLWWG	0.4494 ± 0.0012	0.437 ± 0.034	0.507 ± 0.006	0.371 ± 0.038	0.5248 ± 0.004	0.349 ± 0.013	0.364 ± 0.014	0.5013 ± 0.0039
VLLFGLAFFFSF	0.371 ± 0.055	0.422 ± 0.058	0.4953 ± 0.0026	0.367 ± 0.053	0.537 ± 0.036	0.222 ± 0.013	0.241 ± 0.029	0.408 ± 0.033
VLLGYPRILSLF	0.35 ± 0.061	0.7 ± 0.059	0.8278 ± 0.002	0.681 ± 0.0075	0.8122 ± 0.0047	0.1646 ± 0.0013	0.167 ± 0.021	0.25 ± 0.0096
